Data as given in the NTF2 design screens of Basanta et al. (2020).

assay: protease stability score; higher = more stable; yeast display proteolysis, trypsin and chymotrypsin;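 further: relative to predicted unfolded state with 0 unfolded-like and 1 meaning tenfold more protease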

Compared with “SEEEEMNEELIKIVLHSWKTGDEKHLEENFDPNVKLIVGDKRFIGREHLVKLIDHLIKRYPGLTIHLHDVKIQGNYVHLDTRAHFDGQTYNTRSHARKVDGRWYLTHSHIE”, “DEDKESAKTLVELLVEVLSTGDWKELLHLMDPNTRININGREVHGWHSMHELLRRMIEELRIKRLHLTEVRAQGDKVHVSSKMRVNIDGQDRLTQTHIDVHVFDGVIKTWTMHIE” is higher in protease stability score: 0.125 for the first, 1.01 for the second.

First: SEKDREMEHFAKILISNLVTGDEEEIFRMADPHYRYQQGDKRIHGREEWRQWLREERERVDHIEFKIHRVEQQGEKIHLDWEIQIEIGNYEIKDKTTIIFIVVDGRLKQIEVRHH
Second: SHEEHHLYEVAEMLLRWWRTGDEDSLYKFIDPHARVEIGEYSVHGREHIVRLMSRHLREIRLKDTDVHRIDVINGQTVLNVRLRGEINGVDTNVDARLHVVVVDGVVHSIHIEHI
The protease stability score of the first is lower: 0.786 for the first, 1.24 for the second.

First: SEDHKETEEAMHKIRHDLETGDEKSWHEQADPNTRIDINGVDLHGREWASKFYSDVMQKVKGATVHLKHVHIFENRLIVDGIEIVNGRTHRVHLIADKINGRWVIREIRVE
Second: EEERRDAEIALTVIEHHWETGDEKDLDEMLDPDVRVIINGQRYHGREWLSRFREDLGATYHDVHVDDIRIYDGRVEMDFHVRGKVGDKERDTRVRIFMIKFDGRWVVEQITLE
The protease stability score of the first is lower: 1.06 for the first, 1.95 for the second.

Going from “NMDEKLKRWAIEDHIKSDETGDENMKEHYMDPNVRIDIGDYELHGREAAIRDIRRIRHEMGVKVMHVEIEHVDVQGEKIRIHSRLIFEINGKEVRHETNIIYSKFDGRWVLKHESIK” to “SEEEKLRKSLVELILHALHTGDWERLTRLLDPHVRWDQGDKVFHGREDFKRAWTELGVDHFQLRHIEMQGDKLHIKGEMHVNGRTIHVDLDIEIINGRIEHHRVDTK”, the protease stability score rises from 0.102 to 1.35.

First: DLEHEITRRVLWELTESSKTGDFDRRLELLDPHARVNIDGKDFHGREEVEYLLREMEKFWGHDRVYLDVKEIEIQGDKIDVDSELTINGKKRKARLIVVKVNGRWVIHSIEVE
Second: DEHEEDARRDLEKLARSLKTGDEDSLRTLFDPNTRNDVNGKDFIGWEELLRILREWRFHDMKVEDLEVQGNKVISHVRLDGTFDGRRDEMHVEIRAEKVNGRWRIRSYIVR
The protease stability score of the first is lower: 1.04 for the first, 1.77 for the second.

First: DEEKEEHEKMIERWLRALETGDEHLLRELIDPNVRLDINGRRTHGREDVLRLFVDLGIDHHDIHDVKIIDGRIDMDTRINVNGREIKIRVIARKFDGRWIVESFRVE
Second: NELTEVIRYWIHLWLTQLFTGNEEIIRRLADPNARFEVNGREIHGMDEWVDILKRLGMRFHHFHVDTIEIIDGVIHVQSRFDIDINGRRVNEETYHVIEKINGRWTLRTMELR
The protease stability score of the first is lower: 1.89 for the first, 2.31 for the second.

Going from “HEEEEEIKEATRLFEEIHRTGDERESREMIDPNALFEVGNFKDHGWDSIHVLMRRVKNVKITLDDFKIQGDKVHLHITENFNGKRVHVTIIAVKINGVWFVHKIRYD” to “DEETKELEEIMKFYISAFRTGDWRLIEELADPNVRLNVDGREFHGREQFLKHFREELEHLGIDHVHVDHIDIQGEKLIIRLTIHVDGREIHNILILIIVNGRLHEVKWIRV”, the protease stability score rises from 1.44 to 1.58.

First: TDKEEETKENAEKLTKHILTGNWEEFFNLADPNVRMHIQQGDKRINRHGREDAYHEYKDLERNLGIDHMHIKDIRVQGDWVHIHLEYRYGDKRFEVEIVLLIVDGRLTEVNVTIR
Second: DEEEEKSKRMLEIIIHAVMTGDFQHLLDNMDPHVKLDIDGVDLHGRESAEEFVKKVKNLTLHDWKLDHWHIQGDKVTMHVTIDGLYNGKKERTRVIIIALKINGQWHIKSMKID
The protease stability score of the first is lower: 1.09 for the first, 1.9 for the second.

Going from “EEIHKHLKELFVRWMKELVTGNEDSFKDLFDPHTRIHMHIGDKEIHAHGRKHLEDMILRFKGLRVEFRVEDSTAIGDKAHADFHLIIHVDGKNITTREEVRISVIDGKIREVHHHIN” to “DEEEKALDHAWRRFLETLKTGDERKFHELLDPNVQIDWNGRKLHGMHLIVDIIRRVKNLKSHEIHIRHITVIGDKVEFRSDIRGTVDGVDTEIHTRYLFLKIDGQWVLHHEEIV”, the protease stability score rises from 1.36 to 2.22.

Going from “DEEDEHLHQFLEDFKHNLKTGNFEAISKNADPHVRVIFNGRRFHGMENVKRLWEELGVDHVRIDHFELIDGRIDLNTTIEQGDKHRRTRLHILIVNGRIKSIHIHFE” to “SEEEELLRRIMKRVIHEWLTGDEDSFKELADPNVRVENIVDGRNIEAVGRDEAEHVWRHFDKHLGVDHRELKEFHVFDGVIRVRMKLKIGDKEIEMHLKFIIIDGRFTRVHSHSV”, the protease stability score rises from 1.16 to 1.31.
